PMC5964570

Molecular target: Angiotensin I converting enzyme (ACE) from rabbit lung (rabbit) (UniProt P12822)
Chain of UniProt P12822 (P12822 34-1310): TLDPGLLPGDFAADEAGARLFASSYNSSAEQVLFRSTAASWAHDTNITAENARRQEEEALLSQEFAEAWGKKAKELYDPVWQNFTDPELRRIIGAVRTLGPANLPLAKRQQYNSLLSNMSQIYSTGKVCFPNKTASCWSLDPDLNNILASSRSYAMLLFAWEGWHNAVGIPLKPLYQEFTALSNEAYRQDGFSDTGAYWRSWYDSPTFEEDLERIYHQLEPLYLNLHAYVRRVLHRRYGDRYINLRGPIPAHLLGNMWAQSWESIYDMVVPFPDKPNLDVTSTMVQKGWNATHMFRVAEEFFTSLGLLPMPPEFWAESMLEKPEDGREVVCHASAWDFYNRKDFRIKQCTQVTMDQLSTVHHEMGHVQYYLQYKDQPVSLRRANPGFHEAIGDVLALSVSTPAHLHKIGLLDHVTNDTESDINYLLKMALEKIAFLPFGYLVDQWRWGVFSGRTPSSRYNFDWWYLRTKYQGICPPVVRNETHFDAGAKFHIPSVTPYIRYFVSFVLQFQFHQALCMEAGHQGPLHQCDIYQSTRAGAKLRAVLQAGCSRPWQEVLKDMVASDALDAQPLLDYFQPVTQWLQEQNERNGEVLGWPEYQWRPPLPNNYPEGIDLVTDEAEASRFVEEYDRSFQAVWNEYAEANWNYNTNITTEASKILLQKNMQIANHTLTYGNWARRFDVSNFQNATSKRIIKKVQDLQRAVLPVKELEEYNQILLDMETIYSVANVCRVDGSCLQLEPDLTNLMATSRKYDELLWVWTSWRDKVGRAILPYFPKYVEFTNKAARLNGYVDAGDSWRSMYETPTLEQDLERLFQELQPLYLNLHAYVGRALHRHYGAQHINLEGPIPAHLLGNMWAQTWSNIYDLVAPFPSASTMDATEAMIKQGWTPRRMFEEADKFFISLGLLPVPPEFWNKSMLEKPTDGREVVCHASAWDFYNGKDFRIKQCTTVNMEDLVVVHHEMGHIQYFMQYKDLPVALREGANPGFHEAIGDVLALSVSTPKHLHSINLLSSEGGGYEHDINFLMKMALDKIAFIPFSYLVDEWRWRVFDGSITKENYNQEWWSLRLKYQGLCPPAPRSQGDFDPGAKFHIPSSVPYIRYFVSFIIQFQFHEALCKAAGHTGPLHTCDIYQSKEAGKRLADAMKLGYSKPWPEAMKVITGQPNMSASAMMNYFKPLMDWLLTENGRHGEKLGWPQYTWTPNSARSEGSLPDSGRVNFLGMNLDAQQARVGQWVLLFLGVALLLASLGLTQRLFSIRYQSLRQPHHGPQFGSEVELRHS

IC50 of inhibition of ACE activity (hippuric acid released from Hip-His-Leu, RP-HPLC; 50 mM HEPES, 360 mM NaCl, pH 8.3, 37°C) [μM] | Substance
476 | Cys-Arg (peptide)
13.8 | Cys-Phe (peptide)
4.37 | Cys-Cys (peptide)
